The test system of data set [1] is MS2 coat protein. The data set can be described thus: apparent KD of MS2 coat protein; designed switch direction (-1 OFF switch, 1 ON switch): 1; higher = weaker reporter binding. Conditions: Eterna round: R98. How it is done: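 RNA-MaP: designed FMN/MS2 RNA switches (84 nt design region) are transcribed on-chip within common flanks and titrated with SNAP-549-labelled MS2 coat protein (about 1-3000 nM) in 100 mM Tris pH 7.5, 80 mM KCl, 4 mM MgCl2, without or with 200 uM FMN. Median apparent KD per design; activation ratio = KD,OFF / KD,ON.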

Data set [2] has as its system MS2 coat protein. The data set can be described thus: apparent KD of MS2 coat protein, switch OFF state (with FMN for OFF switches, without FMN for ON switches); designed switch direction (-1 OFF switch, 1 ON switch): 1; higher = weaker reporter binding. The note with it: FMN input: 0 or 200 uM; Eterna round: R93 (includes R88 designs). In short, it runs like this:
(§1)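 Each design's apparent KD comes from the median of binding-curve fits to its normalised clusters. Those clusters carried RNA switches transcribed on-chip from Illumina sequencing clusters. SNAP-549-labelled MS2 coat protein was titrated onto them in twofold steps (0.7 or 1.5 nM to 3 µM; per step 0.8–1.5 h down to 10–20 min). Conditions were 100 mM Tris-HCl pH 7.5, 80 mM KCl, 4 mM MgCl2, without or with constant ligand.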

In data set [3] the test system is MS2 coat protein. The data set can be described thus: apparent KD of MS2 coat protein, switch ON state; designed switch direction (-1 OFF switch, 1 ON switch): 1; higher = weaker reporter binding. Conditions: FMN input: 0 or 200 uM; Eterna round: R93 (includes R88 designs). In short, it runs like this: as §1

Take “AAAAUAAAAUAAAUUAACAUGAGGAUCACCCAUGUCGCUAGACAGGAUAUAUAAAAUAAAAUAAAGUAGAAGGGUCAAAUAAAA [LRO001_SS NG 3]”: the “apparent KD of MS2 coat protein” value in data set [1] (input ligand: FMN 200 uM) is 88.2 nM; in data set [1] (input ligand: none) it was 114 nM.

For the sequence “AAAAUAUAAUAUAUUAACAUGAGGAUCACCCAUGUCGCUAGACAGGAUAUAUAAAAUAAAAUAAAGUAGAAGGGUCAUAUAAUA [LRO003_SS NG 3]”, the “apparent KD of MS2 coat protein” value in data set [1] (input ligand: FMN 200 uM) turned out to be 93.9 nM; in data set [1] (input ligand: none), 56.4 nM.

Consider “AAACUUAUCACAGGAUAUUCCUGAGGAUGCCAGGGAGAAGGGUGACUCUUGGGACAUGAGGAUCACCCAUGUUCUGUGGGAAAA [Xeusdior]”, for which the “apparent KD of MS2 coat protein” value in data set [1] (input ligand: FMN 200 uM) came to 190 nM; in data set [1] (input ligand: none), 182 nM.

With “ACGUUAAUUCGAGGAUAUCGGUGAUUUAUAUUACGAGAAGGCGAUAAUUGUGAACAACUUAUAGACAUGAGGAUCACCCAUGUA [JR_SSNG1_Sub065]”, the “apparent KD of MS2 coat protein” value in data set [1] (input ligand: FMN 200 uM) turned out to be 21.3 nM; in data set [1] (input ligand: none), 28.6 nM.

For the sequence “AGCGGUAGGACAGGAUAUGGUGACUUCAAGCGGCCAGAAGGGUCCCGACAUGAGGAUCACCCAUGUCUUCCAGGCAGGAAGCGC [Bequques]”, the figures for the “apparent KD of MS2 coat protein” value in data set [1] (input ligand: FMN 200 uM) and in data set [1] (input ligand: none) were 443 nM and 239 nM, respectively.

For the sequence “CACGUCCUCACAGGAUAUGCUGGACUUUGUCCAGCAGAAGGGUGAAACAUGAGGAUCACCCAUGUAAGGACGUGUAUAUUUAAU [Denovo 21]”, the “apparent KD of MS2 coat protein” value was 1470 nM in data set [1] (input ligand: FMN 200 uM) and 187 nM in data set [1] (input ligand: none).

Take “CCGAAUGUCACAGGAUAUGGUCCGGGCACGCGACCAGAAGGGUGAUCUCACAUGAGGAUCACCCAUGUGUAGGCGUUAGACUAC [Dierata]”: the “apparent KD of MS2 coat protein” value in data set [1] (input ligand: FMN 200 uM) amounted to 191 nM; in data set [1] (input ligand: none), 96.6 nM.

Turning to “CGGAUCGCAUGAGGAUAUGGUCAGCUUUGCUGACCAGAAGGCAUGUCAAUAGACAUGAGGAUCACCCAUGUAGUUAAGAUCCGA [Mat - Same State NG 1 - JL Mod - D17]”, the “apparent KD of MS2 coat protein” value in data set [1] (input ligand: FMN 200 uM) was 45.5 nM; in data set [1] (input ligand: none) it was 644 nM.

For “GAAAAACAUGAGGAUCACCCAUGUACAAAUAUGGAAGGAUAUACGAUGACGAAAGUCAAAGUAGAAGGUCUAAAAG [Garnet 98]”, the “apparent KD of MS2 coat protein” value in data set [2] came out at 25.4 nM; in data set [3] it was 20.9 nM.

With “GAAAAACAUGAGGAUCACCCAUGUAGAAAUAUGGGAGGAUAUACAAAGACGAAAGUCAAAGUAGAAGGCCUGAAGA [Mat - Same State 1 - JL mod - D91]”, the entries for the “apparent KD of MS2 coat protein” value in data set [2] and in data set [3] were 73.1 nM and 27.1 nM, respectively.

Consider “GAAAAACAUGAGGAUCACCCAUGUAGAAAUAUGGGAGGAUAUACAAAGACGAAAGUCAAAGUAGAAGGCCUGAGAA [Mat - Same State 1 - Eli mod - 83]”, for which the “apparent KD of MS2 coat protein” value in data set [2] was determined as 103 nM; in data set [3], 21 nM.

Consider “GAAAAACAUGAGGAUCACCCAUGUAGAAAUAUGGGAGGAUAUACAAGGACGAAAGUCAAGGUAGAAGGCCUAAAAG [Mat - Same State 1 - Eli mod - 26]”, for which the figures for the “apparent KD of MS2 coat protein” value in data set [2] and in data set [3] were 98.6 nM and 33.8 nM, respectively.

“GAAAAACAUGAGGAUCACCCAUGUGGAAAUAUGGGAGGAUAUACGAAGACGAAAGUCAAAGUAGAAGGCCUAAAAG [Same State 1.4c (Mat - Mod of Eli - )]”: the “apparent KD of MS2 coat protein” value in data set [2] was found to be 83.8 nM; in data set [3], 22 nM.

As to “GAAAAACAUGAGGAUCACCCAUGUGUAAAUAUGGAAGGAUAUACGAAGACGUAAGUCAAAGUAGAAGGUCUAAAAG [Garnet 99]”, the “apparent KD of MS2 coat protein” value worked out at 24.9 nM in data set [2] and 19.3 nM in data set [3].

Take “GAAGACAUAGUUCAGGAUAUAGGAAUAGUCACAUGAGGAUCACCCAUGUGCAUUUAUAUGCGCACUUAGAAGGGAGGUAGUUAAU [Mat - Same state - Malcolm Mod - D120]”: the “apparent KD of MS2 coat protein” value in data set [2] is 26.8 nM; in data set [3], 28.4 nM.

On to “GACAAACAUGAGGAUCACCCAUGUAGAAAUAUGGGAGGAUAUACACAGACGAAAGUCAAAGUAGAAGGCCUAAAAG [77%, Mat - Mod of Eli - With 2 more C's]”, for which the “apparent KD of MS2 coat protein” value was determined as 137 nM in data set [2] and 28.5 nM in data set [3].

In the case of “GACCGGGACGCGUAGGAUAUGUAGUGCGCUACAUGAGGAUCACCCAUGUGCGAGACUUCAAAAGAGCAGAAGGGUGUGUGCCCGG [Xegeedri]”, the “apparent KD of MS2 coat protein” value in data set [2] stood at 65.8 nM; in data set [3], 40.2 nM.

On to “GAGAAACAUGAGGAUCACCCAUGUAGAAAUAUGGGAGGAUAUACAAAGACGAAAGUCAAAGUAGAAGGCCUAAAAG [77%, Mat - Mod of Eli - With 1 more G's]”, for which the “apparent KD of MS2 coat protein” value amounted to 55.9 nM in data set [2] and 26 nM in data set [3].

Consider “GAGAAGGAGAGAGAGGAUAUCCAAAGGAAAACAUGAGGAUCACCCAUGUAAAAGGUAGGAAAUUGGGAGAAGGCUCAAGAGAGAG [salish99-ss2-108(!)]”, for which the “apparent KD of MS2 coat protein” value in data set [2] worked out at 34.3 nM; in data set [3], 33 nM.

Take “GAGAUACAUGAGGAUCACCCAUGUUGAAACAUGGGAGGAUAUACAAGGUCGAAAGAUAAGGUAGAAGGCCUAAAAG [LROPPY Same State 1 - v04_deltaG=3.]”: the “apparent KD of MS2 coat protein” value in data set [2] came out at 20.3 nM; in data set [3], 37.6 nM.

For “GAGCCGCGGGCACAGGAUAUGCUCGGGCAAACAUGAGGAUCACCCAUGUGCGGCCUAAAUACGACGCAGAAGGGUGCUUGUGUGU [Lausisan]”, the entries for the “apparent KD of MS2 coat protein” value in data set [2] and in data set [3] were 102 nM and 36.5 nM, respectively.

As for “GGAAGACAUGAGGAUCACCCAUGUGGGAAUAUGGGAGGAUAUACAAAGACGAGAGUCAGAGUAGAAGGCCUAGGAU [salish99-ss1-100]”, the “apparent KD of MS2 coat protein” value in data set [2] was 138 nM; in data set [3], 44 nM.

For “GGCAGGAAGAGAGAGGAUAUCCAAAGGAAAACAUGAGGAUCACCCAUGUAAAAGGUAGGAAAUUGGGAGAAGGCUCAAGAGAGAG [salish99-ss2-099]”, the “apparent KD of MS2 coat protein” value worked out at 35.4 nM in data set [2] and 30.9 nM in data set [3].

Consider “GGGAGACAUGAGGAUCACCCAUGUGAGAAGAGGCGAGGAUAUCGAAAAAAAAAAAAAAAACGAGAAGGCGCGAGAC [salish99-SS1-006]”, for which the “apparent KD of MS2 coat protein” value in data set [2] is 94.5 nM; in data set [3], 33.6 nM.

In the case of “GGGAGACAUGAGGAUCACCCAUGUGAGAAGAGGCGAGGAUAUCGAAAGAAAGAAGAGAAACGAGAAGGCGCGAGCA [salish99-SS1-052]”, the “apparent KD of MS2 coat protein” value in data set [2] was found to be 60.4 nM; in data set [3], 39 nM.

Turning to “GGGAGGAAGAGAGAGGAUAUCCAAAGGAAAACAUGAGGAUCACCCAUGUAAAAGGUAGGAAAUUGGGAGAAGGCUCAAGAGAUGG [salish99-ss2-052]”, the figures for the “apparent KD of MS2 coat protein” value in data set [2] and in data set [3] were 39.2 nM and 59 nM, respectively.

On to “GGGAGUAACAGAGAGGAUAUCCAAAGGAAAACAUGAGGAUCACCCAUGUAAAAGGAAGGAAAUUGGGAGAAGGCUCAAAAUAGAA [salish99-ss2-021]”, for which the “apparent KD of MS2 coat protein” value was determined as 27 nM in data set [2] and 13.9 nM in data set [3].

As to “GGGUGGGUCACAGGAUAUCCCGUGAGCCACAUGAGGAUCACCCAUGUAUCACGACGAAAGAAGAAGGAGAAGGGUGACCCUGAU [Tibiiste]”, the “apparent KD of MS2 coat protein” value is 29.8 nM in data set [1] (input ligand: FMN 200 uM) and 40.7 nM in data set [1] (input ligand: none).

In the case of “GGUCCAACAUGAGGAUAUGGCACCUUAUUGGUGCCAGAAGGCGUGUCGAUAGACAUGAGGAUCACCCAUGUAAUAAAUUGGACC [SameState #23 NG1]”, the “apparent KD of MS2 coat protein” value in data set [1] (input ligand: FMN 200 uM) was found to be 138 nM; in data set [1] (input ligand: none), 467 nM.

Take “GUGGACGUAGGAUAGGAUAUAUGAAUAAUUACAUGAGGAUCACCCAUGUCCAUUUAUAUGGGAACAUAGAAGGGUUGUGGUUAAC [Mat - Same state - Malcolm Mod - D132]”: the “apparent KD of MS2 coat protein” value in data set [2] came out at 602 nM; in data set [3], 364 nM.

With “GUGGUGUAGGUACAGGAUAUGUUGCUCGUAACAUGAGGAUCACCCAUGUACCUAUGAGAUUAAAUGCAGAAGGGUGCACACCACG [Alage]”, the “apparent KD of MS2 coat protein” value in data set [2] stood at 118 nM; in data set [3], 37.3 nM.

As for “UAAAAAAAAAGACAGGAUAUCCAAAAGAAAACAUGAGGAUCACCCAUGUAAAAGAAAAUAAAAUGGGAGAAGGGUCAAAAAAAAU [Mat - Same State 2 - JL mod - D79]”, the “apparent KD of MS2 coat protein” value came out at 53.5 nM in data set [2] and 31 nM in data set [3].

Take “UAAUAAUAAACCAAGGAUAUGGAGUAUAGCACAUGAGGAUCACCCAUGUGUAGCGUGGGUUAGUACCAGAAGGUGGAGUGAAAUG [JR_SS002_Sub1001]”: the “apparent KD of MS2 coat protein” value was determined as 82.8 nM in data set [2] and 87.8 nM in data set [3].

For “UGAAGACAUGAGGAUCACCCAUGUGGGAAUAUGGGAGGAUAUACAAAGACGAGAGUCAGAGUAGAAGGCCUAGGAC [salish99-ss1-98]”, the “apparent KD of MS2 coat protein” value came to 133 nM in data set [2] and 47.9 nM in data set [3].

Consider “UGGAGGAAGAGAGAGGAUAUCCAAAGGAAAACAUGAGGAUCACCCAUGUAAAAGGUAGGAAAUUGGGAGAAGGCUCAAGAGAGAG [salish99-ss2-059]”, for which the figures for the “apparent KD of MS2 coat protein” value in data set [2] and in data set [3] were 63.7 nM and 37.2 nM, respectively.

Regarding “UUUCAUUACACGAAGGAUAUCGCUUUUCAGACAUGAGGAUCACCCAUGUAGUAGAUUUCCCUGUUCGAGAAGGUCGCGGGUGAAC [JR_SS002_Sub603]”, the “apparent KD of MS2 coat protein” value in data set [2] was 70.4 nM; in data set [3], 51.5 nM.

These data come from the supplement of paper PMC9170038.
